Results on 20 molecules are retold here after patent US7657380.

To fix the notation:
B1: AC10 H3/L3.37 (antibody, IgG1, name in Kabat numbering, V domains shown)
VH: QIQLVQSGPEVKKPGASVKVSCKASGYTFTDYYITWVRQAPGQGLEWMGWIYPGSGNTKYNEKFQGRFVFSVDTSASTAYLQISSLKAEDTAVYFCANYGNYWFAYWGQGTLVTVSS
VL: DIVLTQSPDSLAVSLGERATINCKASQSVDFDGDSYMNWYQQKPGQPPKVLIYAASTLESGIPARFSGSGSGTDFTLTINSLEAEDAATYYCQQSNEDPWTFGGGTKVEIK
B2: AC10 H3/L3.63 (antibody, IgG1, name in Kabat numbering, V domains shown)
VH: QIQLVQSGPEVKKPGASVKVSCKASGYTFTDYYITWVRQAPGQGLEWMGWIYPGSGNTKYNEKFQGRFVFSVDTSASTAYLQISSLKAEDTAVYFCANYGNYWFAYWGQGTLVTVSS
VL: DIVLTQSPDSLAVSLGERATINCKASQSVDFDGDSYMNWYQQKPGQPPKVLIYAASNLESGIPARFSGSGSGTDFTLTINSLEAEDAATYYCQQSNESPWTFGGGTKVEIK
B3: AC10 H3/L3.60 (antibody, IgG1, name in Kabat numbering, V domains shown)
VH: QIQLVQSGPEVKKPGASVKVSCKASGYTFTDYYITWVRQAPGQGLEWMGWIYPGSGNTKYNEKFQGRFVFSVDTSASTAYLQISSLKAEDTAVYFCANYGNYWFAYWGQGTLVTVSS
VL: DIVLTQSPDSLAVSLGERATINCKASQSVDFDGDSYMNWYQQKPGQPPKVLIYAASNLESGIPARFSGSGSGTDFTLTINSLEAEDAATYYCQQSNEFPWTFGGGTKVEIK
B4: AC10 H3/L3.44 (antibody, IgG1, name in Kabat numbering, V domains shown)
VH: QIQLVQSGPEVKKPGASVKVSCKASGYTFTDYYITWVRQAPGQGLEWMGWIYPGSGNTKYNEKFQGRFVFSVDTSASTAYLQISSLKAEDTAVYFCANYGNYWFAYWGQGTLVTVSS
VL: DIVLTQSPDSLAVSLGERATINCKASQSVDFDGDSYMNWYQQKPGQPPKVLIYAASNLESGIPSRFSGSGSGTDFTLTINSLEAEDAATYYCQQSNEDPWTFGGGTKVEIK
B5: AC10 H3/L3.54 (antibody, IgG1, name in Kabat numbering, V domains shown)
VH: QIQLVQSGPEVKKPGASVKVSCKASGYTFTDYYITWVRQAPGQGLEWMGWIYPGSGNTKYNEKFQGRFVFSVDTSASTAYLQISSLKAEDTAVYFCANYGNYWFAYWGQGTLVTVSS
VL: DIVLTQSPDSLAVSLGERATINCKASQSVDFDGDSYMNWYQQKPGQPPKVLIYAASNLESGIPARFSGSGSGTDFTLTINSLEAEDAATYYCQQSYEDPWTFGGGTKVEIK
B6: AC10 H3/L3.43 (antibody, IgG1, name in Kabat numbering, V domains shown)
VH: QIQLVQSGPEVKKPGASVKVSCKASGYTFTDYYITWVRQAPGQGLEWMGWIYPGSGNTKYNEKFQGRFVFSVDTSASTAYLQISSLKAEDTAVYFCANYGNYWFAYWGQGTLVTVSS
VL: DIVLTQSPDSLAVSLGERATINCKASQSVDFDGDSYMNWYQQKPGQPPKVLIYAASNLESGIPDRFSGSGSGTDFTLTINSLEAEDAATYYCQQSNEDPWTFGGGTKVEIK
B7: AC10 H3/L3.39 (antibody, IgG1, name in Kabat numbering, V domains shown)
VH: QIQLVQSGPEVKKPGASVKVSCKASGYTFTDYYITWVRQAPGQGLEWMGWIYPGSGNTKYNEKFQGRFVFSVDTSASTAYLQISSLKAEDTAVYFCANYGNYWFAYWGQGTLVTVSS
VL: DIVLTQSPDSLAVSLGERATINCKASQSVDFDGDSYMNWYQQKPGQPPKVLIYAASNLASGIPARFSGSGSGTDFTLTINSLEAEDAATYYCQQSNEDPWTFGGGTKVEIK
B8: AC10 H3/L3.48 (antibody, IgG1, name in Kabat numbering, V domains shown)
VH: QIQLVQSGPEVKKPGASVKVSCKASGYTFTDYYITWVRQAPGQGLEWMGWIYPGSGNTKYNEKFQGRFVFSVDTSASTAYLQISSLKAEDTAVYFCANYGNYWFAYWGQGTLVTVSS
VL: DIVLTQSPDSLAVSLGERATINCKASQSVDFDGDSYMNWYQQKPGQPPKVLIYAASNLESGIPARFSGSGSGTDFTLTINSLEAEDAATYYCQQGNEDPWTFGGGTKVEIK
B9: AC10 H3/L3.53 (antibody, IgG1, name in Kabat numbering, V domains shown)
VH: QIQLVQSGPEVKKPGASVKVSCKASGYTFTDYYITWVRQAPGQGLEWMGWIYPGSGNTKYNEKFQGRFVFSVDTSASTAYLQISSLKAEDTAVYFCANYGNYWFAYWGQGTLVTVSS
VL: DIVLTQSPDSLAVSLGERATINCKASQSVDFDGDSYMNWYQQKPGQPPKVLIYAASNLESGIPARFSGSGSGTDFTLTINSLEAEDAATYYCQQSSEDPWTFGGGTKVEIK
B10: AC10 H3/L3.58 (antibody, IgG1, name in Kabat numbering, V domains shown)
VH: QIQLVQSGPEVKKPGASVKVSCKASGYTFTDYYITWVRQAPGQGLEWMGWIYPGSGNTKYNEKFQGRFVFSVDTSASTAYLQISSLKAEDTAVYFCANYGNYWFAYWGQGTLVTVSS
VL: DIVLTQSPDSLAVSLGERATINCKASQSVDFDGDSYMNWYQQKPGQPPKVLIYAASNLESGIPARFSGSGSGTDFTLTINSLEAEDAATYYCQQSNSDPWTFGGGTKVEIK
B11: AC10 H3/L3.41 (antibody, IgG1, name in Kabat numbering, V domains shown)
VH: QIQLVQSGPEVKKPGASVKVSCKASGYTFTDYYITWVRQAPGQGLEWMGWIYPGSGNTKYNEKFQGRFVFSVDTSASTAYLQISSLKAEDTAVYFCANYGNYWFAYWGQGTLVTVSS
VL: DIVLTQSPDSLAVSLGERATINCKASQSVDFDGDSYMNWYQQKPGQPPKVLIYAASNLETGIPARFSGSGSGTDFTLTINSLEAEDAATYYCQQSNEDPWTFGGGTKVEIK
B12: AC10 H3/L3.62 (antibody, IgG1, name in Kabat numbering, V domains shown)
VH: QIQLVQSGPEVKKPGASVKVSCKASGYTFTDYYITWVRQAPGQGLEWMGWIYPGSGNTKYNEKFQGRFVFSVDTSASTAYLQISSLKAEDTAVYFCANYGNYWFAYWGQGTLVTVSS
VL: DIVLTQSPDSLAVSLGERATINCKASQSVDFDGDSYMNWYQQKPGQPPKVLIYAASNLESGIPARFSGSGSGTDFTLTINSLEAEDAATYYCQQSNELPWTFGGGTKVEIK
B13: AC10 H3/L3.42 (antibody, IgG1, name in Kabat numbering, V domains shown)
VH: QIQLVQSGPEVKKPGASVKVSCKASGYTFTDYYITWVRQAPGQGLEWMGWIYPGSGNTKYNEKFQGRFVFSVDTSASTAYLQISSLKAEDTAVYFCANYGNYWFAYWGQGTLVTVSS
VL: DIVLTQSPDSLAVSLGERATINCKASQSVDFDGDSYMNWYQQKPGQPPKVLIYAASNLESGVPARFSGSGSGTDFTLTINSLEAEDAATYYCQQSNEDPWTFGGGTKVEIK
B14: AC10 H3/L3.40 (antibody, IgG1, name in Kabat numbering, V domains shown)
VH: QIQLVQSGPEVKKPGASVKVSCKASGYTFTDYYITWVRQAPGQGLEWMGWIYPGSGNTKYNEKFQGRFVFSVDTSASTAYLQISSLKAEDTAVYFCANYGNYWFAYWGQGTLVTVSS
VL: DIVLTQSPDSLAVSLGERATINCKASQSVDFDGDSYMNWYQQKPGQPPKVLIYAASNLQSGIPARFSGSGSGTDFTLTINSLEAEDAATYYCQQSNEDPWTFGGGTKVEIK
B15: AC10 H3/L3.56 (antibody, IgG1, name in Kabat numbering, V domains shown)
VH: QIQLVQSGPEVKKPGASVKVSCKASGYTFTDYYITWVRQAPGQGLEWMGWIYPGSGNTKYNEKFQGRFVFSVDTSASTAYLQISSLKAEDTAVYFCANYGNYWFAYWGQGTLVTVSS
VL: DIVLTQSPDSLAVSLGERATINCKASQSVDFDGDSYMNWYQQKPGQPPKVLIYAASNLESGIPARFSGSGSGTDFTLTINSLEAEDAATYYCQQSNNDPWTFGGGTKVEIK
B16: AC10 H3/L3.55 (antibody, IgG1, name in Kabat numbering, V domains shown)
VH: QIQLVQSGPEVKKPGASVKVSCKASGYTFTDYYITWVRQAPGQGLEWMGWIYPGSGNTKYNEKFQGRFVFSVDTSASTAYLQISSLKAEDTAVYFCANYGNYWFAYWGQGTLVTVSS
VL: DIVLTQSPDSLAVSLGERATINCKASQSVDFDGDSYMNWYQQKPGQPPKVLIYAASNLESGIPARFSGSGSGTDFTLTINSLEAEDAATYYCQQSNKDPWTFGGGTKVEIK
B17: AC10 H3/L3.49 (antibody, IgG1, name in Kabat numbering, V domains shown)
VH: QIQLVQSGPEVKKPGASVKVSCKASGYTFTDYYITWVRQAPGQGLEWMGWIYPGSGNTKYNEKFQGRFVFSVDTSASTAYLQISSLKAEDTAVYFCANYGNYWFAYWGQGTLVTVSS
VL: DIVLTQSPDSLAVSLGERATINCKASQSVDFDGDSYMNWYQQKPGQPPKVLIYAASNLESGIPARFSGSGSGTDFTLTINSLEAEDAATYYCQQHNEDPWTFGGGTKVEIK
B18: AC10 H3/L3.51 (antibody, IgG1, name in Kabat numbering, V domains shown)
VH: QIQLVQSGPEVKKPGASVKVSCKASGYTFTDYYITWVRQAPGQGLEWMGWIYPGSGNTKYNEKFQGRFVFSVDTSASTAYLQISSLKAEDTAVYFCANYGNYWFAYWGQGTLVTVSS
VL: DIVLTQSPDSLAVSLGERATINCKASQSVDFDGDSYMNWYQQKPGQPPKVLIYAASNLESGIPARFSGSGSGTDFTLTINSLEAEDAATYYCQQYNEDPWTFGGGTKVEIK
B19: AC10 H3/L3.38 (antibody, IgG1, name in Kabat numbering, V domains shown)
VH: QIQLVQSGPEVKKPGASVKVSCKASGYTFTDYYITWVRQAPGQGLEWMGWIYPGSGNTKYNEKFQGRFVFSVDTSASTAYLQISSLKAEDTAVYFCANYGNYWFAYWGQGTLVTVSS
VL: DIVLTQSPDSLAVSLGERATINCKASQSVDFDGDSYMNWYQQKPGQPPKVLIYAASNRESGIPARFSGSGSGTDFTLTINSLEAEDAATYYCQQSNEDPWTFGGGTKVEIK
B20: AC10 H3/L3.50 (antibody, IgG1, name in Kabat numbering, V domains shown)
VH: QIQLVQSGPEVKKPGASVKVSCKASGYTFTDYYITWVRQAPGQGLEWMGWIYPGSGNTKYNEKFQGRFVFSVDTSASTAYLQISSLKAEDTAVYFCANYGNYWFAYWGQGTLVTVSS
VL: DIVLTQSPDSLAVSLGERATINCKASQSVDFDGDSYMNWYQQKPGQPPKVLIYAASNLESGIPARFSGSGSGTDFTLTINSLEAEDAATYYCQQLNEDPWTFGGGTKVEIK

The assay deals with T1, human CD30 (commercial, conjugated to digoxigenin) (human, UniProt P28908 19-379, limits assumed, conjugated to digoxigenin (DIG)).
T1 sequence (looked up): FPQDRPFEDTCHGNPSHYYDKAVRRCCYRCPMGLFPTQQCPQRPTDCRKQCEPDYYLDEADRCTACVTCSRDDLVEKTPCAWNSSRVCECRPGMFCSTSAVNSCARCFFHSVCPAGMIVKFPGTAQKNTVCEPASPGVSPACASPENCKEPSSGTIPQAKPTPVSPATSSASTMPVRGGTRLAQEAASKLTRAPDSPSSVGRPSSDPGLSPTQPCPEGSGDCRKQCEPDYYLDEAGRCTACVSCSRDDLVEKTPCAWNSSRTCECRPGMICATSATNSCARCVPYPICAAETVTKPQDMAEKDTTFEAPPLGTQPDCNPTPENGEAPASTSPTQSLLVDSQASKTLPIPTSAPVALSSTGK
The experiment in a line: AlphaScreen competition.
For the molecule B1, the “Fold IC50 vs H3/L3” value was found to be 1.26 fold.

With B2, the “Fold IC50 vs H3/L3” value turned out to be 0.57 fold.

Consider B3, for which the “Fold IC50 vs H3/L3” value came to 0.02 fold.

Turning to B4, the “Fold IC50 vs H3/L3” value is 1.08 fold.

B5: the “Fold IC50 vs H3/L3” value was determined as 0.96 fold.

On to B6, for which the “Fold IC50 vs H3/L3” value worked out at 1.16 fold.

For B7, the “Fold IC50 vs H3/L3” value was 0.85 fold.

Take B8: the “Fold IC50 vs H3/L3” value was found to be 0.29 fold.

As for B9, the “Fold IC50 vs H3/L3” value stood at 0.48 fold.

Take B10: the “Fold IC50 vs H3/L3” value amounted to 0.49 fold.

B11: the “Fold IC50 vs H3/L3” value stood at 1.8 fold.

B12: the “Fold IC50 vs H3/L3” value came out at 0.46 fold.

For B13, the “Fold IC50 vs H3/L3” value was found to be 1.55 fold.

B14: the “Fold IC50 vs H3/L3” value stood at 0.87 fold.

Consider B15, for which the “Fold IC50 vs H3/L3” value was 0.64 fold.

As to B16, the “Fold IC50 vs H3/L3” value came out at 0.27 fold.

As to B17, the “Fold IC50 vs H3/L3” value came out at 0.01 fold.

Take B18: the “Fold IC50 vs H3/L3” value was found to be 0.02 fold.

As for B19, the “Fold IC50 vs H3/L3” value stood at 1.46 fold.

For B20, the “Fold IC50 vs H3/L3” value was found to be 0.02 fold.
